Experimental data from patent US20050272633.

Biological target: T1, IL-2 receptor common gamma chain (cγc), full length (1-369), P31785
T1 chain: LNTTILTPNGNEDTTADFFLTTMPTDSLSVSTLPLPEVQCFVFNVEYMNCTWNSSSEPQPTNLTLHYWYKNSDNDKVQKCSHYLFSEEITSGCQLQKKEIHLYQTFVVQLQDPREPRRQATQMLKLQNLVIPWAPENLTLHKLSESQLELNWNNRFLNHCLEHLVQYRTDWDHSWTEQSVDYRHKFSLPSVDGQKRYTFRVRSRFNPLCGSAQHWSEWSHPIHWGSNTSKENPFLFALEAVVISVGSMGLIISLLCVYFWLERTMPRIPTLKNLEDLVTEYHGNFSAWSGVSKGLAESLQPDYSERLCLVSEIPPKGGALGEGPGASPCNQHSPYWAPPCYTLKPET

B1: myc tagged NIK (pcS3MTNIK) (protein)
chain: MAVMEMACPGAPGSAVGQQKELPKAKEKTPPLGKKQSSVYKLEAVEKSPVFCGKWEILNDVITKGTAKEGSEAGPAAISIIAQAECENSQEFSPTFSERIFIAGSKQYSQSESLDQIPNNVAHATEGKMARVCWKGKRRSKARKKRKKKSSKSLAHAGVALAKPLPRTPEQESCTIPVQEDESPLGAPYVRNTPQFTKPLKEPGLGQLCFKQLGEGLRPALPRSELHKLISPLQCLNHVWKLHHPQDGGPLPLPTHPFPYSRLPHPFPFHPLQPWKPHPLESFLGKLACVDSQKPLPDPHLSKLACVDSPKPLPGPHLEPSCLSRGAHEKFSVEEYLVHALQGSVSSGQAHSLTSLAKTWAARGSRSREPSPKTEDNEGVLLTEKLKPVDYEYREEVHWATHQLRLGRGSFGEVHRMEDKQTGFQCAVKKVRLEVFRAEELMACAGLTSPRIVPLYGAVREGPWVNIFMELLEGGSLGQLVKEQGCLPEDRALYYLGQALEGLEYLHSRRILHGDVKADNVLLSSDGSHAALCDFGHAVCLQPDGLGKSLLTGDYIPGTETHMAPEVVLGRSCDAKVDVWSSCCMMLHMLNGCHPWTQFFRGPLCLKIASEPPPVREIPPSCAPLTAQAIQEGLRKEPIHRVSAAELGGKVNRALQQVGGLKSPWRGEYKEPRHPPPNQANYHQTLHAQPRELSPRAPGPRPAEETTGRAPKLQPPLPPEPPEPNKSPPLTLSKEESGMWEPLPLSSLEPAPARNPSSPERKATVPEQELQQLEIELFLNSLSQPFSLEEQEQILSCLSIDSLSLSDDSEKNPSKASQSSRDTLSSGVHSWSSQAEARSSSWNMVLARGRPTDTPSYFNGVKVQIQSLNGEHLHIREFHRVKVGDIATGISSQIPAAAFSLVTKDGQPVRYDMEVPDSGIDLQCTLAPDGSFAWSWRVKHGQLENRP
in vitro kinase assay of anti NIK immunoprecipitates: NIK self- and IKK1-phosphorylation: A three fold increase in phosphorylation of NIK self- and IKK1-phosphorylation was observed in the presence of cγc
